# Experimental data: article PMC12484072 (Frontiers in Microbiology, 2025)
# Where “and” joins values, the source holds several entries; their conditions need not be identical. Equal values may be shown once. Bridge positions count the residues as written; N and C are the ends. Square brackets hold non-standard residues; d marks the D form. Ends that are not written are not given here. dOrn = NCCC[C@@H](N)C(=O)O
# Biological target: T1, SaNsrP-ECD, soluble extracellular domain of SaNsrP (S. agalactiae)
# T1 construct: also called SaNsrFP ECD
# Assay: other fluorescence titration
# Settings: both partners purified
binder,measurement,value
ICL[dE]IK[dOrn]I[dF]H[dD]N (lactam 6-C; also: N-terminal thiazoline: Ile1-Cys2 condensed) [bacitracin],Kd,259 µM and 304 µM
